Assay results: paper PMC6459857 (Nature Communications, 2019)

Legend:
Conditions in all cases: both partners purified
[1] = molecular target: Cdk2/cyclin A binary complex (human, UniProt P24941 1-298; P20248 173-432); assay: single-molecule fluorescence anisotropy (smFA); BODIPY-labelled single-Cys p27, not phosphorylated, free or in complex with Cdk2/cyclin A, diluted to pM; 20 mM HEPES pH 7.5, 300 mM NaCl, 40 µM TROLOX; average anisotropy of free and complexed p27 compared
[2] = molecular target: T1, Cdk2/cyclin A binary complex (human, UniProt P24941 1-298; P20248 173-432); assay: single-molecule fluorescence anisotropy (smFA); BODIPY-labelled single-cysteine p27 in complex with Cdk2/cyclin A, freely diffusing molecules at pM concentration; 20 mM HEPES pH 7.5, 300 mM NaCl, 40 µM TROLOX
[3] = molecular target: T1, Cdk2/cyclin A binary complex; assay: ITC; 10 µM p27 or p27 Y to E variants injected into 1 µM Cdk2/cyclin A binary complex; 20 mM HEPES pH 7.5, 300 mM NaCl, 2 mM TCEP; experiments from 5 to 25 °C in intervals of 5 °C (temperature of the tabulated values not stated); single-site binding model
[4] = molecular target: T1, Cdk2/cyclin A binary complex; assay: FRET or BRET; single-molecule FRET (smMFD) within dual-labelled p27 in complex with Cdk2/cyclin A, freely diffusing molecules at pM concentration; 20 mM HEPES pH 7.5, 300 mM NaCl, 40 µM TROLOX

| Binder | binding result [1] | binding result [4] | also measured |
| --- | --- | --- | --- |
| p27-C29 (full-length p27-Y89F with the single native Cys 29, labelled with BODIPY-FL) (natural protein, BODIPY-FL on Cys 29, p27Kip1 (p27), human, residues 1-198 (full length), Y89F; Cys 29 kept, the other three native Cys replaced; also called p27-29C; source: E. coli, purified (Ni-NTA, His-tag removed with thrombin, reverse-phase HPLC over C4); labelled with BODIPY-FL) MSNVRVSNGSPSLERMDARQAEHPKPSACRNLFGPVDHEELTRDLEKHARDMEEASQRKWNFDFQNHKPLEGKYEWQEVEKGSLPEFYFRPPRPPKGASKVPAQESQDVSGSRPAAPLIGAPANSEDTHLVDPKTDPSDSQTGLAEQSAGIRKRPATDDSSTQNKRANRTEENVSDGSPNAGSVEQTPKKPGLRRRQT | binds |  |  |
| BODIPY-labeled p27-C29 (natural protein, BODIPY-FL on the native cysteine at 29, p27Kip1 (p27), human, p27-Y89F background with the single native Cys 29 kept; also called p27–29C; source: E. coli, purified; labelled with BODIPY-FL) MSNVRVSNGSPSLERMDARQAEHPKPSACRNLFGPVDHEELTRDLEKHARDMEEASQRKWNFDFQNHKPLEGKYEWQEVEKGSLPEFYFRPPRPPKGASKVPAQESQDVSGSRPAAPLIGAPANSEDTHLVDPKTDPSDSQTGLAEQSAGIRKRPATDDSSTQNKRANRTEENVSDGSPNAGSVEQTPKKPGLRRRQT |  |  | binding result [2]: binds |
| Y74E/Y88E-p27 (natural protein, p27Kip1 (p27), human, residues 1–198 (full length); also called Y88E/Y74E; dual Y phosphomimetic p27; source: E. coli, purified (Ni2+-NTA, His-tag removed with thrombin, reverse-phase HPLC over C4 resin)) MSNVRVSNGSPSLERMDARQAEHPKPSACRNLFGPVDHEELTRDLEKHCRDMEEASQRKWNFDFQNHKPLEGKEEWQEVEKGSLPEFEFRPPRPPKGACKVPAQESQDVSGSRPAAPLIGAPANSEDTHLVDPKTDPSDSQTGLAEQCAGIRKRPATDDSSTQNKRANRTEENVSDGSPNAGSVEQTPKKPGLRRRQT |  |  | Kd [3]: 14 nM; dH [3]: -34.4 kcal/mol |
| p27-C40 (Cys-less full-length p27-Y89F with E40C, labelled with BODIPY-FL) (natural protein, BODIPY-FL on Cys 40, p27Kip1 (p27), human, residues 1-198 (full length), Y89F, Cys-less background, Glu 40 to Cys; also called p27-40C; source: E. coli, purified (Ni-NTA, His-tag removed with thrombin, reverse-phase HPLC over C4); labelled with BODIPY-FL) MSNVRVSNGSPSLERMDARQAEHPKPSAARNLFGPVDHECLTRDLEKHARDMEEASQRKWNFDFQNHKPLEGKYEWQEVEKGSLPEFYFRPPRPPKGASKVPAQESQDVSGSRPAAPLIGAPANSEDTHLVDPKTDPSDSQTGLAEQSAGIRKRPATDDSSTQNKRANRTEENVSDGSPNAGSVEQTPKKPGLRRRQT | binds |  |  |
| p27-C75-110 (Alexa Fluor 488 / Alexa Fluor 647 labelled) (natural protein, Alexa Fluor 488 maleimide and Alexa Fluor 647 maleimide on the cysteines at 75 and 110, p27Kip1 (p27), human, in the Cys-less p27-Y89F background; source: E. coli, purified; dye-labelled, dual-labelled species separated by ion-exchange chromatography) MSNVRVSNGSPSLERMDARQAEHPKPSAARNLFGPVDHEELTRDLEKHARDMEEASQRKWNFDFQNHKPLEGKYCWQEVEKGSLPEFYFRPPRPPKGASKVPAQESQDVCGSRPAAPLIGAPANSEDTHLVDPKTDPSDSQTGLAEQSAGIRKRPATDDSSTQNKRANRTEENVSDGSPNAGSVEQTPKKPGLRRRQT |  | binds |  |
| p27-C75 (Cys-less full-length p27-Y89F with E75C, labelled with BODIPY-FL) (natural protein, BODIPY-FL on Cys 75, p27Kip1 (p27), human, residues 1-198 (full length), Y89F, Cys-less background, Glu 75 to Cys; also called p27-75C; source: E. coli, purified (Ni-NTA, His-tag removed with thrombin, reverse-phase HPLC over C4); labelled with BODIPY-FL) MSNVRVSNGSPSLERMDARQAEHPKPSAARNLFGPVDHEELTRDLEKHARDMEEASQRKWNFDFQNHKPLEGKYCWQEVEKGSLPEFYFRPPRPPKGASKVPAQESQDVSGSRPAAPLIGAPANSEDTHLVDPKTDPSDSQTGLAEQSAGIRKRPATDDSSTQNKRANRTEENVSDGSPNAGSVEQTPKKPGLRRRQT | binds |  |  |
| p27-C93 (Cys-less full-length p27-Y89F with R93C, labelled with BODIPY-FL) (natural protein, BODIPY-FL on Cys 93, p27Kip1 (p27), human, residues 1-198 (full length), Y89F, Cys-less background, Arg 93 to Cys; also called p27-93C; source: E. coli, purified (Ni-NTA, His-tag removed with thrombin, reverse-phase HPLC over C4); labelled with BODIPY-FL) MSNVRVSNGSPSLERMDARQAEHPKPSAARNLFGPVDHEELTRDLEKHARDMEEASQRKWNFDFQNHKPLEGKYEWQEVEKGSLPEFYFRPPCPPKGASKVPAQESQDVSGSRPAAPLIGAPANSEDTHLVDPKTDPSDSQTGLAEQSAGIRKRPATDDSSTQNKRANRTEENVSDGSPNAGSVEQTPKKPGLRRRQT | binds |  |  |
| p27-C54 (Cys-less full-length p27-Y89F with E54C, labelled with BODIPY-FL) (natural protein, BODIPY-FL on Cys 54, p27Kip1 (p27), human, residues 1-198 (full length), Y89F, Cys-less background, Glu 54 to Cys; also called p27-54C; source: E. coli, purified (Ni-NTA, His-tag removed with thrombin, reverse-phase HPLC over C4); labelled with BODIPY-FL) MSNVRVSNGSPSLERMDARQAEHPKPSAARNLFGPVDHEELTRDLEKHARDMECASQRKWNFDFQNHKPLEGKYEWQEVEKGSLPEFYFRPPRPPKGASKVPAQESQDVSGSRPAAPLIGAPANSEDTHLVDPKTDPSDSQTGLAEQSAGIRKRPATDDSSTQNKRANRTEENVSDGSPNAGSVEQTPKKPGLRRRQT | binds |  |  |
| BODIPY-labeled p27-C93 (natural protein, BODIPY-FL on the cysteine at 93, p27Kip1 (p27), human, in the Cys-less p27-Y89F background; source: E. coli, purified; labelled with BODIPY-FL) MSNVRVSNGSPSLERMDARQAEHPKPSAARNLFGPVDHEELTRDLEKHARDMEEASQRKWNFDFQNHKPLEGKYEWQEVEKGSLPEFYFRPPCPPKGASKVPAQESQDVSGSRPAAPLIGAPANSEDTHLVDPKTDPSDSQTGLAEQSAGIRKRPATDDSSTQNKRANRTEENVSDGSPNAGSVEQTPKKPGLRRRQT |  |  | binding result [2]: binds |
| pY88-p27-C54-93 (Alexa Fluor 488 / Alexa Fluor 647 labelled) (natural protein, phosphotyrosine at 88; Alexa Fluor 488 maleimide and Alexa Fluor 647 maleimide on the cysteines at 54 and 93, p27Kip1 (p27), human, in the Cys-less p27-Y89F background; source: E. coli, purified; dye-labelled; phosphorylated with ABL-KD) MSNVRVSNGSPSLERMDARQAEHPKPSAARNLFGPVDHEELTRDLEKHARDMECASQRKWNFDFQNHKPLEGKYEWQEVEKGSLPEFYFRPPCPPKGASKVPAQESQDVSGSRPAAPLIGAPANSEDTHLVDPKTDPSDSQTGLAEQSAGIRKRPATDDSSTQNKRANRTEENVSDGSPNAGSVEQTPKKPGLRRRQT |  | binds |  |
| p27-C29-54 (Alexa Fluor 488 / Alexa Fluor 647 labelled) (natural protein, Alexa Fluor 488 maleimide and Alexa Fluor 647 maleimide on the cysteines at 29 and 54, p27Kip1 (p27), human, p27-Y89F background with the native Cys 29 kept; source: E. coli, purified; dye-labelled, dual-labelled species separated by ion-exchange chromatography) MSNVRVSNGSPSLERMDARQAEHPKPSACRNLFGPVDHEELTRDLEKHARDMECASQRKWNFDFQNHKPLEGKYEWQEVEKGSLPEFYFRPPRPPKGASKVPAQESQDVSGSRPAAPLIGAPANSEDTHLVDPKTDPSDSQTGLAEQSAGIRKRPATDDSSTQNKRANRTEENVSDGSPNAGSVEQTPKKPGLRRRQT |  | binds |  |
| BODIPY-labeled pY88-p27-C93 (natural protein, phosphotyrosine at 88; BODIPY-FL on the cysteine at 93, p27Kip1 (p27), human, in the Cys-less p27-Y89F background; source: E. coli, purified; labelled with BODIPY-FL; phosphorylated with ABL-KD) MSNVRVSNGSPSLERMDARQAEHPKPSAARNLFGPVDHEELTRDLEKHARDMEEASQRKWNFDFQNHKPLEGKYEWQEVEKGSLPEFYFRPPCPPKGASKVPAQESQDVSGSRPAAPLIGAPANSEDTHLVDPKTDPSDSQTGLAEQSAGIRKRPATDDSSTQNKRANRTEENVSDGSPNAGSVEQTPKKPGLRRRQT |  |  | binding result [2]: binds |
| p27-C54-93 (Alexa Fluor 488 / Alexa Fluor 647 labelled) (natural protein, Alexa Fluor 488 maleimide and Alexa Fluor 647 maleimide on the cysteines at 54 and 93, p27Kip1 (p27), human, in the Cys-less p27-Y89F background; also called p27-C54-C93; source: E. coli, purified; dye-labelled, dual-labelled species separated by ion-exchange chromatography) MSNVRVSNGSPSLERMDARQAEHPKPSAARNLFGPVDHEELTRDLEKHARDMECASQRKWNFDFQNHKPLEGKYEWQEVEKGSLPEFYFRPPCPPKGASKVPAQESQDVSGSRPAAPLIGAPANSEDTHLVDPKTDPSDSQTGLAEQSAGIRKRPATDDSSTQNKRANRTEENVSDGSPNAGSVEQTPKKPGLRRRQT |  | binds |  |
